Source: the supplement of paper PMC7125110
± gives the standard error. For part of these data: Fewer inactive variants are shown than the library holds.

B1: glmS ribozyme (parent)
chain: AUAAAAGCGCCAGAACUACAGAAAUGUAGUUGACGAGGAGGAGGUUUAUCGAAUUUUCGGCGGAUGCCUCCAAA

Assays:
Settings in all cases: with glucosamine-6-phosphate
glucosamine-6-phosphate [1] = variants of: B1; test: kcat; higher = faster cleavage; RNA array
How it was run: (§1)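 kobs was derived by fitting per-tile medians to one- or two-exponential decays after normalising signals to baseline and to non-cleaving reference variants. Those signals came from barcoded ribozyme variants transcribed in situ by E. coli RNA polymerase on sequenced MiSeq chips, followed through a hybridised Cy3 probe at 37 °C and imaged over ~14 h. Glucosamine-6-phosphate (40 μM to 10 mM) in HEPES/KCl/Mg(OAc)2 buffer was flowed in. Weighted Michaelis–Menten fits across concentrations then gave kcat and KM.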

glucosamine-6-phosphate [2] = variants of: B1; test: self-cleavage kobs at 40 uM GlcN6P; higher = faster cleavage; RNA array
How it was run: as §1

glucosamine-6-phosphate [3] = variants of: B1; test: self-cleavage kobs at 160 uM GlcN6P; higher = faster cleavage; RNA array
How it was run: as §1

glucosamine-6-phosphate [4] = variants of: B1; test: self-cleavage kobs at 640 uM GlcN6P; higher = faster cleavage; RNA array
How it was run: as §1

glucosamine-6-phosphate [5] = variants of: B1; test: self-cleavage kobs at 2500 uM GlcN6P; higher = faster cleavage; RNA array
How it was run: as §1

glucosamine-6-phosphate [6] = variants of: B1; test: self-cleavage kobs at 10000 uM GlcN6P; higher = faster cleavage; RNA array
How it was run: as §1

glucosamine-6-phosphate [7] = variants of: B1; test: KM; higher = weaker cofactor use; RNA array
How it was run: as §1

Row | Variant | kcat (glucosamine-6-phosphate [1]) | self-cleavage kobs at 40 uM GlcN6P (glucosamine-6-phosphate [2]) | self-cleavage kobs at 160 uM GlcN6P (glucosamine-6-phosphate [3]) | self-cleavage kobs at 640 uM GlcN6P (glucosamine-6-phosphate [4]) | self-cleavage kobs at 2500 uM GlcN6P (glucosamine-6-phosphate [5]) | self-cleavage kobs at 10000 uM GlcN6P (glucosamine-6-phosphate [6]) | KM (glucosamine-6-phosphate [7])
1 | AUAAAAGCGCCAGAACUACAGAAAUGUAGAUGACGAGGAGGAGGUUUAUCGAAUGUUCGGCGGAUGCCUCCAAA [U30A U55G] | 0.00534 ± 0.002 s⁻¹ | 0.000142 ± 2.1e-05 s⁻¹ | 0.000286 ± 5.5e-05 s⁻¹ | 0.00138 ± 0.00022 s⁻¹ | 0.00239 ± 0.00033 s⁻¹ | 0.00586 ± 0.00095 s⁻¹ | –
2 | AUAAAAGCGCCAGAACUACAGAAAUGUAGUUGACGAGGAGGAGGUUUAUUGAAUUUGCGGCGGAUGCCUCCAAA [C50U U57G] | < 1e-05 s⁻¹ | – | – | < 1e-05 s⁻¹ | – | – | –
3 | AUAAAAGCGCCAAAACUACAGAAAUGUAGUUGACGAGGAGGAGGUUUAUAGAAUUUUCGGCGGAUGCCUCCAAA [G13A C50A] | < 1e-05 s⁻¹ | < 1e-05 s⁻¹ | – | – | – | < 1e-05 s⁻¹ | –
4 | AUAAAAGCGCCAGAACUACAGAAAUGUAGUUGACGAGGAGGAGGUUUUUCGAAUUUUCGGCGGAUGCCGCCAAA [A48U U69G] | 5.22e-05 ± 2.1e-05 s⁻¹ | – | – | – | 7.45e-05 ± 1.7e-05 s⁻¹ | – | –
5 | AUAAAAGCGCAAGAACUACAGAAAUGUAGUUGACGAGGAGGAGGUUUAUCGAAUCUUCGGCGGAUGCCUCCAAA [C11A U55C] | 0.000132 ± 2.4e-05 s⁻¹ | – | – | 3.19e-05 ± 1.5e-05 s⁻¹ | 0.000125 ± 4.2e-05 s⁻¹ | 0.000109 ± 2.1e-05 s⁻¹ | –
6 | AUAAAAGCGCAAGAACUACAGAAAUGUAGUUGACGAGGAGGAGGUUUAUCGAAUUUUCGGCGGAUGCCUACAAA [C11A C70A] | 2.97e-05 ± 1.1e-05 s⁻¹ | – | – | 4.96e-05 ± 1.9e-05 s⁻¹ | – | – | –
7 | AUAAAAGCGCCAGAACUACAGAAAUGUAGUUGACGACGAGGAGGUUUAUCGAAUUUUCGGCGGAUACCUCCAAA [G37C G66A] | 3.43e-05 ± 7.8e-06 s⁻¹ | < 1e-05 s⁻¹ | – | – | 3.43e-05 ± 1.5e-05 s⁻¹ | – | –
8 | AUAAAAGCGCAAGAACUACAGAAAUGUAGUUGACGAGGAGGAGGUUUAUCGAAUUUUCGGCGGAUGUCUCCAAA [C11A C67U] | 4.14e-05 ± 2.5e-06 s⁻¹ | – | – | 3.1e-05 ± 1.4e-05 s⁻¹ | 3.53e-05 ± 1e-05 s⁻¹ | 4.17e-05 ± 6.9e-06 s⁻¹ | –
9 | AUAAAAGCGCCAUACCUACAGAAAUGUAGUUGACGAGGAGGAGGUUUAUCGAACUUUCGGCGGAUGCCUCCAAA [G13U A15C U54C] | 0.000132 ± 1.2e-05 s⁻¹ | – | – | – | 0.00013 ± 3.3e-05 s⁻¹ | 0.000122 ± 1.9e-05 s⁻¹ | –
10 | AUAAAAGCGCCAGAACUACAGAAAUGUAGUUGACGAGGAGGAGGUUUAACGAAUUUUCGGUGGAUGCCUCCAAA [U49A C61U] | < 1e-05 s⁻¹ | – | – | – | – | – | –
11 | AUAAAAGCGCCAGAACUACAGAAAUGUAGUUGACGAGGCGGAGGUUUAUCGAAUUUUCGGCGGGUGCCUCCAAA [A39C A64G] | 0.00631 ± 0.0019 s⁻¹ | 0.000169 ± 1.3e-05 s⁻¹ | 0.000342 ± 6.2e-05 s⁻¹ | 0.0014 ± 0.00018 s⁻¹ | 0.00323 ± 0.00045 s⁻¹ | 0.00604 ± 0.00065 s⁻¹ | 1870 ± 760 µM
12 | AUAAAAGCGCCAGAACUACAGAAAUGUAGUUGACGAGCAGGAGGUUUAUCGGAUUUUCGGCGGAUGCCUCCAAA [G38C A52G] | < 1e-05 s⁻¹ | – | < 1e-05 s⁻¹ | – | < 1e-05 s⁻¹ | < 1e-05 s⁻¹ | 30.9 ± 14 µM
13 | AUAAAAGCGCCAGAACUACAGAAAUGUAGUUGACGAGGAGGAGGUUUAUCGACUUUUCGACGGAUGCCUCCAAA [A53C G60A] | 2.08e-05 ± 2.9e-06 s⁻¹ | < 1e-05 s⁻¹ | < 1e-05 s⁻¹ | – | – | – | 7110 ± 2300 µM
14 | AUAAAAGCGCCAGAUCUACAGAAAUGUAGUUGACGAGGAGAAGGUUUAUCGAAUUUUCGGCGGAUGCCUCCAAA [A15U G41A] | 0.000124 ± 3.5e-05 s⁻¹ | – | – | 6.09e-05 ± 1.6e-05 s⁻¹ | 0.000147 ± 2.5e-05 s⁻¹ | 8.75e-05 ± 2.5e-05 s⁻¹ | –
15 | AUAAAUGCGCCAGAACUACAGAAAUGUAGUUGACGAGGAGGAGGUUUAUCGAAUUUUCGACGGAUGCCUCCAAA [A6U G60A] | < 1e-05 s⁻¹ | – | – | < 1e-05 s⁻¹ | – | – | –
16 | AUAAAAGCGCCACAACUACAGAAAUGUAGUUGACGAGGAGAAGGUUUAUCGAAUUUUCGGCGGAUGCCUCCAAA [G13C G41A] | 5.76e-05 ± 4.7e-06 s⁻¹ | < 1e-05 s⁻¹ | – | < 1e-05 s⁻¹ | – | – | –
17 | AUAAAAGCGCCAGAACUACAGAAAUGUAGUUGACGACGAGGAGGUUUAUCGAAUUUUCGGCGGAUGACUCCAAA [G37C C67A] | < 1e-05 s⁻¹ | – | < 1e-05 s⁻¹ | – | – | – | 2800 ± 950 µM
18 | AUAAAAGCGCCAGAACUACAGAAAUGUAGUUGACGAGGAGGAGGUUUAUCAAAUUUUCGGCGGAUGCCUUCAAA [G51A C70U] | 1.48e-05 ± 3.4e-06 s⁻¹ | – | – | – | – | – | –
19 | AUAAAAGCGCCAGAACUACAGAAAUGUAGUUGACGAGGAGGAGGUUUUUCGAAGUUUCGGCGGAUGCCUCCAAA [A48U U54G] | 0.000434 ± 0.00011 s⁻¹ | – | 6.29e-05 ± 1.9e-05 s⁻¹ | 8.39e-05 ± 4.1e-05 s⁻¹ | 0.000261 ± 0.0001 s⁻¹ | 0.000397 ± 9.1e-05 s⁻¹ | –
20 | AUAAAAGCGCCAGAACUACAGAAAUGUAGUUGACGACGAGGAGGUUUAUCGAAAUUUCGGCGGAUGCCGCCAAA [G37C U54A U69G] | 3.07e-05 ± 5e-06 s⁻¹ | – | – | – | – | – | –
21 | AUAAAAGCGCCAGAACUACAGAAAUGUAGUUGACGAGGAGGAGGUUUUUCGAAUUUUCGGCGGAUUCCUCCAAA [A48U G66U] | 2.75e-05 ± 2.7e-06 s⁻¹ | – | – | – | – | 2.42e-05 ± 8e-06 s⁻¹ | –
22 | AUAAAAGCGCCAGAACUACAGAAAUGUAGUUGACGAGGUGGAGGUUUAUGGAAUUUUUGGCGGAUGCCUCCAAA [A39U C50G C58U] | 1.28e-05 ± 4e-06 s⁻¹ | – | – | – | – | – | –
23 | AUAAAAGCGCCAGAUCUACAGAAAUGUAGUUGACGAGGAGGAGGUUUAUCGAAUUUUCGGAGGAUGCCUCCAAA [A15U C61A] | < 1e-05 s⁻¹ | < 1e-05 s⁻¹ | – | – | – | – | 829 ± 70 µM
24 | AUAAAAGCGCCAGAACUACAGAAAUGUAGUUGACGAGGAGGAAGAUUAUCGAAUUUUCGGCGGAUGCCUCCAAA [G43A U45A] | 5.51e-05 ± 7.6e-07 s⁻¹ | – | – | – | 2.63e-05 ± 1.1e-05 s⁻¹ | 4.33e-05 ± 1.3e-05 s⁻¹ | 2720 ± 100 µM
